The Kd is the free concentration of one partner at which half of the binding sites on the other are occupied at equilibrium, for simple one-to-one binding.

The target in test [1] is T1, recombinant HIS-tagged human S100A10 (wild type) (human, UniProt P60903 1-97).
T1 construct: human S100A10, cDNA in pET28a(+); also called HIS-S100A10; S100A10 wt; source: E. coli BL21(DE3)pLysS, purified (Ni-NTA); not shown: poly-histidine (HIS), N-terminal, kept
As to the kind of experiment: SPR; Biacore 3000; GST-CCR10 CT amine-coupled on a CM5 chip; six concentrations of HIS-tagged S100A10 derivative injected; HBS-P buffer (10 mM Hepes pH 7.4, 150 mM NaCl, 0.005% Tween-20), 25 °C; binding to GST alone subtracted; single binding site model, KD by the Scatchard equation. The settings on record: both partners purified.

Test [2] deals with T1, recombinant HIS-tagged human S100A10 …. Nature of the test: pull-down; GST fusion proteins (50 μg) on glutathione sepharose beads incubated with purified protein (10 μg), 2 hours at 4 °C, IP buffer (20 mM Tris-HCl pH 7.5, 25 mM NaCl, 10 mM NaF, 1 mM EDTA, 0.1% Triton-X 100); immunoblot. The conditions noted are these: both partners purified. For orientation: In western blotting, separated proteins are transferred to a membrane and probed.

T1 sequence (P60903 whole entry): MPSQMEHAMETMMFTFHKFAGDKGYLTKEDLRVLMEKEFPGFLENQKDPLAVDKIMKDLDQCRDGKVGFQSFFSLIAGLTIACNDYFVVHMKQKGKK

B1: GST-CCR10 CT (C-terminal cytoplasmic tail of human CCR10 fused to GST) (domain or fragment, UniProt P46092 314-362, looked up)
chain: GLRFRQDLRRLLRGGSCPSGPQPRRGCPRRPRLSSCSAPTETHSLSWDN
notes: C-terminal cytosolic tail of human CCR10, amino acid residues 314-362 (methods); the results print 314-369; Cloned in pGex-4T-1; Results print 314-369, methods 314-362; also called CCR10 CT_(314–369); pGex-CCR10CT_(314–362)
With B1, the Kd in test [1] was ~1000 nM.

B2: GST-CCR10 CT truncation mutant T1 (domain or fragment, human, UniProt P46092 314-339, looked up)
chain: GLRFRQDLRRLLRGGSCPSGPQPRRG
notes: C-terminal tail of human CCR10, amino acid residues 314-339 (stop codon inserted into pGex-CCR10CT); also called T1 mutant
For the molecule B2, the binding result in test [2] is reported as “binds”.
